Experimental findings from article PMC7570948 (2020) are described below.

Assay [1] addresses T1, CCR7-eGFP stably expressed on 300-19 pre-B cells (human, UniProt P32248 25-378).
T1 chain: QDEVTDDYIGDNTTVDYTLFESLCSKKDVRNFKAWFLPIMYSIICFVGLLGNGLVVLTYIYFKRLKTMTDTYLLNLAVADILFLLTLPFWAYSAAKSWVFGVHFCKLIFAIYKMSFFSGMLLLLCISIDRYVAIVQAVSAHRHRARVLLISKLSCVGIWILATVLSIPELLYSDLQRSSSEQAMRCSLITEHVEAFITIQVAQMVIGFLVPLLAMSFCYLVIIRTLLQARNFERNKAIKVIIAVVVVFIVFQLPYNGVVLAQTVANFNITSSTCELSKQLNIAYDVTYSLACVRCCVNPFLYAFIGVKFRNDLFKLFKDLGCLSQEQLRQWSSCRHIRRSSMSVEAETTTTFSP
The assay is described as follows: FACS; 37°C, competition with 25 nM CCL19-Dy649P1 (printed as EC50; partial inhibition). (In general: In flow cytometry, cells or beads pass a laser one at a time.)

The target of assay [2] is T1, CCR7-eGFP stably expressed on 300-19 …. The assay is described as follows: FACS; 10°C, competition with 25 nM CCL19-Dy649P1 (printed as EC50).
For assay [3] the target is unchanged. In words: FACS; 37°C, competition with 25 nM CCL19-Dy649P1 (printed as EC50).

B1: CXCL14 (synthetic, unlabeled human CXCL14) (ligand)
chain: SKCKCSRKGPKIRYSDVKKLEMKPKYPHCEEKMVIITTKSVSRYRGQEHCLHPKLQSTKRFIKWYNAWNEKRRVYEE
Broadly, the IC50 is the point on the concentration scale where inhibition reaches its midpoint. With B1, the concentration for half-maximal inhibition (IC50) in assay [1] stood at 9.2 nM.

B2: CCL19 (synthetic, unlabeled human CCL19) (ligand)
chain: GTNDAEDCCLSVTQKPIPGYIVRNFHYLLIKDGCRVPAVVFTTLRGRQLCAPPDQPWVERIIQRLQRTSAKMKRRSS
With B2, the 50% inhibitory concentration (IC50) in assay [2] worked out at 10.1 nM; in assay [3], 14.1 nM.
